Here are results for 2 molecules from patent publication US20240398906A1 (YEDA RESEARCH AND DEVELOPMENT, published 2024).

Where “and” joins values, the source holds several entries; their conditions need not be identical. Equal entries are not always repeated.

Test [1] concerns the target T1, recombinant HSP70 (UniProt P0DMV8 1-641, limits assumed).
T1 construct: Purified on a HisTrap column; also called heat shock protein 70
The test is described as follows: ELISA, plate coated with recombinant HSP70, detection with anti-human peroxidase antibody. The protocol: (§1) ELISA binding assay: A ninety-six-well plate (Nunc) was coated with LOX-catalytic domain, HSP70 or BSA at 10 μg/ml. After blocking with 2% BSA in PBS, the plate was incubated with the antibodies for 1 h at 37° C. Bound antibodies were detected by peroxidase-conjugated antibody goat anti-human (Jackson ImmunoResearch). EC₅₀ was calculated with GraphPad Prism from […] curve fitting analysis.
In general terms: In an ELISA, binding on a coated surface is turned into a signal by an enzyme label.

Test [2] addresses T2, recombinant catalytic domain of human LOX (169-417) (human, UniProt P28300 169-417).
T2 construct: also called LOX-catalytic domain; recombinant LOX
T2 sequence: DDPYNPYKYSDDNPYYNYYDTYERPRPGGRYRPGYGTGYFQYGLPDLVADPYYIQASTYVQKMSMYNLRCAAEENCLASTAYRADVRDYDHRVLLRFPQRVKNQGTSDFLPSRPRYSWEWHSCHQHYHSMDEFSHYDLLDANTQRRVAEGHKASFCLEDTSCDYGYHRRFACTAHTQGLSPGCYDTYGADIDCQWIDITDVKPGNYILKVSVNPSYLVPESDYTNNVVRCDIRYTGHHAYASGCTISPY
The test is described as follows: ELISA, plate coated with LOX catalytic domain, detection with anti-human peroxidase antibody. As for the experimental part: as §1

In test [3] the target is T2, recombinant catalytic domain of human …. The test is described as follows: binding affinity against LOX; ELISA according to paragraph 88.
Test [4] shares this target. Kind of test: dissociation constant against LOX; microscale thermophoresis according to paragraph 89. (In MST a laser heats a spot of the sample, and binding alters the fluorescence response.)

T1 sequence (P0DMV8 whole entry): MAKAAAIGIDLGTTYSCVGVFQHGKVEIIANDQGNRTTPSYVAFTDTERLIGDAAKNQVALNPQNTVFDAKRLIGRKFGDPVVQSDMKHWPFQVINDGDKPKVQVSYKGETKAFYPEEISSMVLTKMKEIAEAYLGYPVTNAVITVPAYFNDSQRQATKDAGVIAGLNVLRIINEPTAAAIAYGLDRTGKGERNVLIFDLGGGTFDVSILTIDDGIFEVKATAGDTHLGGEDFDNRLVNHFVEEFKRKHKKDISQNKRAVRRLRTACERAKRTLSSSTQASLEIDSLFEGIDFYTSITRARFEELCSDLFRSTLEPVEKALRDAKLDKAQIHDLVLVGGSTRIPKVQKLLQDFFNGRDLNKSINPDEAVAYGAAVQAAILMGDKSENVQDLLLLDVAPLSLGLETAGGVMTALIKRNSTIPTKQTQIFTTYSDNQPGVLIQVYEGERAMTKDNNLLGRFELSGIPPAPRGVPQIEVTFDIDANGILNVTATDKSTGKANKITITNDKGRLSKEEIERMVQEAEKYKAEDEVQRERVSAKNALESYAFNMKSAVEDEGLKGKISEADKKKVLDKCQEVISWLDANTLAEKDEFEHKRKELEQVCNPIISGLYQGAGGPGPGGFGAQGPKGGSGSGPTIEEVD

B1: AS1 (glycosylated LOX-PP fused to human IgG1 Fc) (Fc fusion)
chain: APPAAGQQQPPREPPAAPGAWRQQIQWENNGQVFSLLSLGSQYQPQRRRDPGAAVPGAANASAQQPRTPILLIRDNRTAAARTRTAGSSGVTAGRPRPTARHWFQAGYSTSRAREAGASRAENQTAPGEVPALSNLRPPSRVDGMVG
modifications: N-glycosylated on N81, N97 and N144 (precursor numbering; positions 60, 76 and 123 of the piece). Disulfide-linked dimer through the Fc hinge.
notes: also called AS1 decoy; not shown: Human IgG1 Fc (hinge-CH2-CH3), its orientation relative to LOX-PP and any linker
By EC50 is commonly meant the midpoint of the concentration-response curve. B1: the figures for the EC50 in test [1] and in test [2] were 41 nM and 43 nM, respectively.

B2: Fc-LPD (Fc fusion)
chain: B1 chain
As a reminder, the Kd is the constant that tells how readily two partners part at equilibrium. B2: the EC50 in test [3] was 40 nM and 43 nM. Besides, the Kd in test [4] was determined as 32 nM.
